For one assay, the target named is T1, human serum albumin (human, UniProt P02768 25-609).
T1 construct: also called HSA; HAS
Briefly: isothermal titration calorimetry, HSA injected into ABD-Dox in PBS at 37 C, independent binding site model. For orientation: Isothermal titration calorimetry measures the heat released or taken up as one component is titrated into another.

In the next assay the target is T2, mouse serum albumin (mouse, UniProt P07724 25-608).
T2 construct: also called MSA
Put plainly: isothermal titration calorimetry, MSA injected into ABD-Dox in PBS at 37 C, independent binding site model.

No end group written: not given here.

T2 sequence (P07724 25-608 limits assumed): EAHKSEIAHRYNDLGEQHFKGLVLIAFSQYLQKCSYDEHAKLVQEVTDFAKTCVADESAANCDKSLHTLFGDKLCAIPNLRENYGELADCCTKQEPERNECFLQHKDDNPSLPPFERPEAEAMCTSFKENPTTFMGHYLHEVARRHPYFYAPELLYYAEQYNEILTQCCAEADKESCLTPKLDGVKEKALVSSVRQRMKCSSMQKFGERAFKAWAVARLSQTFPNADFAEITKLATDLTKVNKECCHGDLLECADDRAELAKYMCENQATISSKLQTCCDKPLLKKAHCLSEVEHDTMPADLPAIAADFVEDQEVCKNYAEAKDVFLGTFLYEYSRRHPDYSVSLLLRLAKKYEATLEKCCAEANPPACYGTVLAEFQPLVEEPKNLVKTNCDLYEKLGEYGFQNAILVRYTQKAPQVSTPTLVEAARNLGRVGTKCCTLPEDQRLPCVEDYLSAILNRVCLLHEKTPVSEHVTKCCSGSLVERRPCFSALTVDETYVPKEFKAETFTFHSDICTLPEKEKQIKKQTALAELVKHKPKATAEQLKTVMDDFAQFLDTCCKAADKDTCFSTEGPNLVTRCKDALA

B1: ABD-Dox (ABD-(CGG)4-Dox with 1 and 2 conjugated Dox molecules) (peptide)
chain: GLAEAKVLANRELDKYGVSDYYKNLINNAKTVEGVKALIDEILAALPCGGCGGCGGCGG
modifications: also: 1-2 doxorubicin via EMCH (maleimide, hydrazone) on Cys of C-terminal (CGG)4
notes: Product of sortase A cleavage of KEKE-ELP160-srt-ABD-(CGG)4-Dox; also called AlBiPeD
In the assay with human serum albumin, B1 registered a Kd of 125 nM, a ΔH of -6.72 kcal/mol and a ΔS of 41.5 Jmol^-1K^-1. In the assay with mouse serum albumin, this molecule came in with a Kd of 73.8 nM, a ΔH of -4.45 kcal/mol and a ΔS of 76.6 Jmol^-1K^-1.

The term Kd denotes the concentration at which binding is half-saturated. A higher Kd goes with weaker binding.

The record behind these values is patent US20210060171A1 (DUKE UNIVERSITY, published 2021).
